According to patent publication US20210388110A1 (published 2021):

biological target: T1, soluble human CD3ε chain (human, UniProt P07766 23-126, limits assumed); assay: SPR (Biacore)
T1 construct: the text says soluble human CD3ε chain; also called human CD3 epsilon chain
T1 sequence (P07766 23-126 limits assumed): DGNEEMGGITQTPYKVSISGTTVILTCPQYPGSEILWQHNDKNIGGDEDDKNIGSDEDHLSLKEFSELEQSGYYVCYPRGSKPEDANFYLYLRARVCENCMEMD

Row | Binder | Kd
1 | TR01H040-E22Hh/none-Hi-Kn010G3/L0215-k0 (antibody, human IgG1, kappa, L234A L235A, N297A, single-arm) heavy: QVQLVESGGGLVQPGRSLRLSCAASGFTFSNAWMHWVRQAPGKGLEWVAQIKDKSQNYATYYAESVKGRFTISRADSKNSIYLQMNSLKTEDTAVYYCRYVHYSASYGVDAWGQGTTVTVSSASTKGPSVFPLAPSSKSTSGGTAALGCLVKDYFPEPVTVSWNSGALTSGVHTFPAVLQSSGLYSLSSVVTVPSSSLGTQTYICNVNHKPSNTKVDKKVEPKSCDKTHTCPPCPAPEAAGGPSVFLFPPKPKDTLMISRTPEVTCVVVDVSHEDPEVKFNWYVDGVEVHNAKTKPREEQYASTYRVVSVLTVLHQDWLNGKEYKCKVSNKALPAPIEKTISKAKGQPREPQVYTLPPSRCELTKNQVSLSCAVKGFYPSDIAVEWESNGQPENNYKTTPPVLDSDGSFFLVSKLTVDKSRWQQGNVFSCSVMHEALHNHYTQKSLSLSPDYKDDDDK EPKSSDKTHTCPPCPAPELLGGPSVFLFPPKPKDTLMISRTPEVTCVVVDVSHEDPEVKFNWYVDGVEVHNAKTKPREEQYNSTYRVVSVLTVLHQDWLNGKEYKCKVSNKALPAPIEKTISKAKGQPREPQVCTLPPSRDELTKNQVSLWCLVKGFYPSDIAVEWESNGQPENNYKTTPPVLDSDGSFFLYSKLTVDKSRWQQGNVFSCSVMHEALHNRYTQKSLSLSP light: DIVMTQSPLSLPVTPGEPASISCRSSQPPVHSNRNTYIHWYQQKPGQAPRLLIYKVSNRFSGVPDRFSGSGSGTDFTLKISRVEAEDVGVYYCGQGTQVPYTFGQGTKLEIKRTVAAPSVFIFPPSDEQLKSGTASVVCLLNNFYPREAKVQWKVDNALQSGNSQESVTEQDSKDSTYSLSSTLTLSKADYEKHKVYACEVTHQGLSSPVTKSFNRGEC | 33.7 nM
2 | TR01H040-E22Hh/none-Hi-Kn010G3/L0216-k0 (antibody, human IgG1, kappa, L234A L235A, N297A, single-arm) heavy: QVQLVESGGGLVQPGRSLRLSCAASGFTFSNAWMHWVRQAPGKGLEWVAQIKDKSQNYATYYAESVKGRFTISRADSKNSIYLQMNSLKTEDTAVYYCRYVHYSASYGVDAWGQGTTVTVSSASTKGPSVFPLAPSSKSTSGGTAALGCLVKDYFPEPVTVSWNSGALTSGVHTFPAVLQSSGLYSLSSVVTVPSSSLGTQTYICNVNHKPSNTKVDKKVEPKSCDKTHTCPPCPAPEAAGGPSVFLFPPKPKDTLMISRTPEVTCVVVDVSHEDPEVKFNWYVDGVEVHNAKTKPREEQYASTYRVVSVLTVLHQDWLNGKEYKCKVSNKALPAPIEKTISKAKGQPREPQVYTLPPSRCELTKNQVSLSCAVKGFYPSDIAVEWESNGQPENNYKTTPPVLDSDGSFFLVSKLTVDKSRWQQGNVFSCSVMHEALHNHYTQKSLSLSPDYKDDDDK EPKSSDKTHTCPPCPAPELLGGPSVFLFPPKPKDTLMISRTPEVTCVVVDVSHEDPEVKFNWYVDGVEVHNAKTKPREEQYNSTYRVVSVLTVLHQDWLNGKEYKCKVSNKALPAPIEKTISKAKGQPREPQVCTLPPSRDELTKNQVSLWCLVKGFYPSDIAVEWESNGQPENNYKTTPPVLDSDGSFFLYSKLTVDKSRWQQGNVFSCSVMHEALHNRYTQKSLSLSP light: DIVMTQSPLSLPVTPGEPASISCRSSQPLVHSNRNTYLHWYQQKPGQAPRLLIYKVSNRFRGVPDRFSGSGSGTDFTLKISRVEAEDVGVYYCGQGTQVPYTFGQGTKLEIKRTVAAPSVFIFPPSDEQLKSGTASVVCLLNNFYPREAKVQWKVDNALQSGNSQESVTEQDSKDSTYSLSSTLTLSKADYEKHKVYACEVTHQGLSSPVTKSFNRGEC | 25.3 nM
3 | TR01H040-E22Hh/none-Hi-Kn010G3/L0217-k0 (antibody, human IgG1, kappa, L234A L235A, N297A, single-arm) heavy: QVQLVESGGGLVQPGRSLRLSCAASGFTFSNAWMHWVRQAPGKGLEWVAQIKDKSQNYATYYAESVKGRFTISRADSKNSIYLQMNSLKTEDTAVYYCRYVHYSASYGVDAWGQGTTVTVSSASTKGPSVFPLAPSSKSTSGGTAALGCLVKDYFPEPVTVSWNSGALTSGVHTFPAVLQSSGLYSLSSVVTVPSSSLGTQTYICNVNHKPSNTKVDKKVEPKSCDKTHTCPPCPAPEAAGGPSVFLFPPKPKDTLMISRTPEVTCVVVDVSHEDPEVKFNWYVDGVEVHNAKTKPREEQYASTYRVVSVLTVLHQDWLNGKEYKCKVSNKALPAPIEKTISKAKGQPREPQVYTLPPSRCELTKNQVSLSCAVKGFYPSDIAVEWESNGQPENNYKTTPPVLDSDGSFFLVSKLTVDKSRWQQGNVFSCSVMHEALHNHYTQKSLSLSPDYKDDDDK EPKSSDKTHTCPPCPAPELLGGPSVFLFPPKPKDTLMISRTPEVTCVVVDVSHEDPEVKFNWYVDGVEVHNAKTKPREEQYNSTYRVVSVLTVLHQDWLNGKEYKCKVSNKALPAPIEKTISKAKGQPREPQVCTLPPSRDELTKNQVSLWCLVKGFYPSDIAVEWESNGQPENNYKTTPPVLDSDGSFFLYSKLTVDKSRWQQGNVFSCSVMHEALHNRYTQKSLSLSP light: DIVMTQSPLSLPVTPGEPASISCRPSQSLVHSNRNTYLHWYQQKPGQAPRLLIYKVSNRFRGVPDRFSGSGSGTDFTLKISRVEAEDVGVYYCGQGTQVPYTFGQGTKLEIKRTVAAPSVFIFPPSDEQLKSGTASVVCLLNNFYPREAKVQWKVDNALQSGNSQESVTEQDSKDSTYSLSSTLTLSKADYEKHKVYACEVTHQGLSSPVTKSFNRGEC | 20.7 nM

The remaining lines, values ahead:

Row | Kd | Binder
4 | 8.2 nM | TR01H040-E22Hh/none-Hi-Kn010G3/L0218-k0 (antibody, human IgG1, kappa, L234A L235A, N297A, single-arm) heavy: QVQLVESGGGLVQPGRSLRLSCAASGFTFSNAWMHWVRQAPGKGLEWVAQIKDKSQNYATYYAESVKGRFTISRADSKNSIYLQMNSLKTEDTAVYYCRYVHYSASYGVDAWGQGTTVTVSSASTKGPSVFPLAPSSKSTSGGTAALGCLVKDYFPEPVTVSWNSGALTSGVHTFPAVLQSSGLYSLSSVVTVPSSSLGTQTYICNVNHKPSNTKVDKKVEPKSCDKTHTCPPCPAPEAAGGPSVFLFPPKPKDTLMISRTPEVTCVVVDVSHEDPEVKFNWYVDGVEVHNAKTKPREEQYASTYRVVSVLTVLHQDWLNGKEYKCKVSNKALPAPIEKTISKAKGQPREPQVYTLPPSRCELTKNQVSLSCAVKGFYPSDIAVEWESNGQPENNYKTTPPVLDSDGSFFLVSKLTVDKSRWQQGNVFSCSVMHEALHNHYTQKSLSLSPDYKDDDDK EPKSSDKTHTCPPCPAPELLGGPSVFLFPPKPKDTLMISRTPEVTCVVVDVSHEDPEVKFNWYVDGVEVHNAKTKPREEQYNSTYRVVSVLTVLHQDWLNGKEYKCKVSNKALPAPIEKTISKAKGQPREPQVCTLPPSRDELTKNQVSLWCLVKGFYPSDIAVEWESNGQPENNYKTTPPVLDSDGSFFLYSKLTVDKSRWQQGNVFSCSVMHEALHNRYTQKSLSLSP light: DIVMTQSPLSLPVTPGEPASISCRSSQSLVHSNRNTYLHWYQQKPGQAPRLLIYKVSNRFRGVPDRFSGSGSGTDFTLKISRVEAEDVGVYYCYQGTQVPYTFGQGTKLEIKRTVAAPSVFIFPPSDEQLKSGTASVVCLLNNFYPREAKVQWKVDNALQSGNSQESVTEQDSKDSTYSLSSTLTLSKADYEKHKVYACEVTHQGLSSPVTKSFNRGEC
5 | 39.4 nM | TR01H040-E22Hh/none-Hi-Kn010G3/L0219-k0 (antibody, human IgG1, kappa, L234A L235A, N297A, single-arm) heavy: QVQLVESGGGLVQPGRSLRLSCAASGFTFSNAWMHWVRQAPGKGLEWVAQIKDKSQNYATYYAESVKGRFTISRADSKNSIYLQMNSLKTEDTAVYYCRYVHYSASYGVDAWGQGTTVTVSSASTKGPSVFPLAPSSKSTSGGTAALGCLVKDYFPEPVTVSWNSGALTSGVHTFPAVLQSSGLYSLSSVVTVPSSSLGTQTYICNVNHKPSNTKVDKKVEPKSCDKTHTCPPCPAPEAAGGPSVFLFPPKPKDTLMISRTPEVTCVVVDVSHEDPEVKFNWYVDGVEVHNAKTKPREEQYASTYRVVSVLTVLHQDWLNGKEYKCKVSNKALPAPIEKTISKAKGQPREPQVYTLPPSRCELTKNQVSLSCAVKGFYPSDIAVEWESNGQPENNYKTTPPVLDSDGSFFLVSKLTVDKSRWQQGNVFSCSVMHEALHNHYTQKSLSLSPDYKDDDDK EPKSSDKTHTCPPCPAPELLGGPSVFLFPPKPKDTLMISRTPEVTCVVVDVSHEDPEVKFNWYVDGVEVHNAKTKPREEQYNSTYRVVSVLTVLHQDWLNGKEYKCKVSNKALPAPIEKTISKAKGQPREPQVCTLPPSRDELTKNQVSLWCLVKGFYPSDIAVEWESNGQPENNYKTTPPVLDSDGSFFLYSKLTVDKSRWQQGNVFSCSVMHEALHNRYTQKSLSLSP light: DIVMTQSPLSLPVTPGEPASISCRSSQSLVHSNRNTYIHWYQQKPGQAPRLLIYKVSNRFRGVPDRFSGSGSGTDFTLKISRVEAEDVGVYYCGQGTQVPYTFGQGTKLEIKRTVAAPSVFIFPPSDEQLKSGTASVVCLLNNFYPREAKVQWKVDNALQSGNSQESVTEQDSKDSTYSLSSTLTLSKADYEKHKVYACEVTHQGLSSPVTKSFNRGEC
6 | 9.15 nM | TR01H040-E22Hh/none-Hi-Kn010G3/L0220-k0 (antibody, human IgG1, kappa, L234A L235A, N297A, single-arm) heavy: QVQLVESGGGLVQPGRSLRLSCAASGFTFSNAWMHWVRQAPGKGLEWVAQIKDKSQNYATYYAESVKGRFTISRADSKNSIYLQMNSLKTEDTAVYYCRYVHYSASYGVDAWGQGTTVTVSSASTKGPSVFPLAPSSKSTSGGTAALGCLVKDYFPEPVTVSWNSGALTSGVHTFPAVLQSSGLYSLSSVVTVPSSSLGTQTYICNVNHKPSNTKVDKKVEPKSCDKTHTCPPCPAPEAAGGPSVFLFPPKPKDTLMISRTPEVTCVVVDVSHEDPEVKFNWYVDGVEVHNAKTKPREEQYASTYRVVSVLTVLHQDWLNGKEYKCKVSNKALPAPIEKTISKAKGQPREPQVYTLPPSRCELTKNQVSLSCAVKGFYPSDIAVEWESNGQPENNYKTTPPVLDSDGSFFLVSKLTVDKSRWQQGNVFSCSVMHEALHNHYTQKSLSLSPDYKDDDDK EPKSSDKTHTCPPCPAPELLGGPSVFLFPPKPKDTLMISRTPEVTCVVVDVSHEDPEVKFNWYVDGVEVHNAKTKPREEQYNSTYRVVSVLTVLHQDWLNGKEYKCKVSNKALPAPIEKTISKAKGQPREPQVCTLPPSRDELTKNQVSLWCLVKGFYPSDIAVEWESNGQPENNYKTTPPVLDSDGSFFLYSKLTVDKSRWQQGNVFSCSVMHEALHNRYTQKSLSLSP light: DIVMTQSPLSLPVTPGEPASISCRSSQPLVHSNRNTYLHWYQQKPGQAPRLLIYKVSNRFRGVPDRFSGSGSGTDFTLKISRVEAEDVGVYYCYQGTQVPYTFGQGTKLEIKRTVAAPSVFIFPPSDEQLKSGTASVVCLLNNFYPREAKVQWKVDNALQSGNSQESVTEQDSKDSTYSLSSTLTLSKADYEKHKVYACEVTHQGLSSPVTKSFNRGEC
